This passage reports protein production results from a protein production outcome set (Wang et al. 2014).

A short description of the data set: label from the status in PepcDB records.
In the case of “MSLQVEGLSINLATIREQCGFAEAVDICLKHGITAIAPWRDQVAAIGLGEAGRIVRANGLKLTGLCRGGFFPAPDASGREKAIDDNRRAVDEAAELGADCLVLVAGGLPGGSKNIDAARRMVVEGIAAVLPHARAAGVPLAIEPLHPMYAADRACVNTLGQALDICETLGPGVGVAIDVYHVWWDPDLANQIARAGKMKAILAHHICDWLVPTKDMLTDRGMMGDGVIDLKGIRRRIEAAGFHGAQEVEIFSADNWWKRPADEVIATCVERYRNEGHHHHHH”, the protein production entry is recorded as “not failed”.

As to “MVIIVSMKANGFFDEQSSLKKSKIGLNLVWMFSLGHIFLITLSNVLVQYPFDMMGFHTTWGAFTYPAIFILTDLTTRIATANKARKIIMLSMTPGLILSYLVASYIEAGNNLNESGLSVLHLMPLRIALACFIAYVVGQLLDVAVFQRYRNRPAWWLAPTLSAVAGNFIDTALFFTIAFYHCSNPFLSQNWPEIAMVDVFFKIMISLIAFVPVYGLVLSILGIKTTNKLMV”, the protein production result is “failed”.

Take “MDPAEMRYLEEEDGPLMKTIKGSITGFGAGTIYGTILATWKDVPRVERNVALPGLIRTLKMMGTHGLTFAAIGGVYIGVEQLVQNFRSKRDFYNGAIGGFVAGASVLGYRARSIPTAIAAGATLAVTSALIDSGGQTTRVDNGREYYPYTVEKRAEADS”: the protein production result is listed as “not failed”.

For “MNAKSRPSRKLLKGAVIGPAQLMADQPFSVIRAVSRRSDRDHVGVLAAGVAFFSLLASFPALVTLITLYGLFTGPQEAVRQIAEAGVYLPRGVHDLLAEHLPRLAQASPGSLGLGAITSLLFSIWSASRGMGAMVDGVDIAYQVGDGRGFLRKSILVVGLTLAGLVVSAIALPLIVGLPALFDRLPLPLEIRWALALARWPLLFALVLGALAVLFRYAPDRENPRWRWVTPGALAAATLWILASGGLSLYVGLVSSYDQTYGTLAGVVVAMMWLYLASYAVLLGAEINAELEDRGMERIKKDQAAAKAAVARA”, the protein production result was “failed”.

“MDLRIKNKAKKIKAVFFDIDDTLRIKDTGYMPDSIKKVFESLQEKDILTGIASGRAPYGVVPEIRQLNPDFFVTINGSYVINHKGEELSNDPIPKDIIEKYVVWCQEIGIEYGFAGKDKAVVSKRTELVDKALVPVYGFCPVEPDFYKNHEVYHMWTFEDVGDSLQLSDELKEDVRLVRWHENSSDVIKNGISKASGLAHVLKKVHLKPENVLFFGDGPNDMEIFDYVGLKVAMGNGHGDLKEKADFITKNVEEDGILYALEELGLVEKELQFPQLDVTNDDAPMALIKTNYGDLKVKLFPKQAPKTVANFVALAKDGYYDGVIFHRVIKDFMIQGGDPTGTGMGGESIYGERFEDEFSEELYNLRGALSMANAGPNTNGSQFFIVQNQNLPYSAKELERGGWPKEIAAAYAENGGTPHLDRRHSVFGQLVDQASYEALDNIANVDTGVADKPIDDIVIESIEVIDDENRG”: the protein production entry is given as “failed”.

On to “MLNSRRIVVVLPAYNAEKTLEMTYAEIPFEHVDHVLLVDDASRDRTAQVAERLGIKTIVHDRNKGYGANQKTCYRAALDLGADIVIMVHPDYQYTPKLITAMAAMIAYGEFDAVLGSRILGIGALKGGMPLYKYVANRVLTLVENLLLSHKLSEYHTGYRAFSRQVLEQLPLDANGDDFVFDNQMLAQIIWHGYRIGELSCPTKYFEDASSINFRRSVIYGLGVLGTALEFRLARMGLIRSGRFTPRNDQAAAQLEHHHHHH”, for which the protein production result is listed as “not failed”.

For the sequence “PHRAVVNFLLSMTNQPGINAGDRLLAVTSISFDISVLELFLPLISGASLVLADSEAAADGQALIKLAMHQDVTFIQATPSNYWLMLEAGWPSTLKLKVLCGGEALPPVLAQKLLQRSDSVWNMYGPTETTIWSAISRVTGSASTLGRP”, the protein production result is given as “failed”.

For the sequence “RNKPKGHLRIAIGGSTACDVLIPLLADFMTSWPDIRINLQVADKPADLISGNIDSAIRGGPMEDSTLIARKIGEATLVTCATPGYLQRYGTPASPDELHHGHRLISYLSPASGRAFPFRFTRH”, the protein production entry was “failed”.

As to “GQGVSRSGALDLGALRSANRTVGNPSDMACVESVLGGLSFSCHGSAVIAITGAHTPVTITSASGLQWQASNYQPIELETGDRVSLGSPKAGLRSYLAIRGGFDVTPVLGSLSTDTLAQLGPEALATGDRLGFTAPVNGTSVSLNEAPAFELPTTANIVTLDVVMGPRTDWFTENAIQRLSSQLWRVTPQSNRVGIRLAGDTPLERSNHQELPSEGTSVGAIQVPASGQPVLFLADHPLTGGYPVIASVASHHLDLAGQIPVNAQIRFNPLGAFEEMQPSTEASFSTADAKNNS”, the protein production result was “failed”.

With “KIGYGKANPTTRLWVGGLGPNTSLAALAREFDRFGSIRTIDHVKGDSFAYIQYESLDAAQAACAKMRGFPLGGPDRRLRVDFAK”, the protein production entry is recorded as “not failed”.

For the sequence “MPFVLRCLLCCTLFVLGGCAAHEAPLAPVNPMGLSGNVAPEAEKNYALARVLWGNSEVCSDPVQAVAYLDRAIAVQPDYAAAYQRRGLAYSEMGRYEEAFEDLTKALRLKPGVEAYTYRGLVSMRMGNLIGARKDLDHALELDSGYHRAWNFRAAVRLQQDDTAGACADFAKGCSKGDCTGMESARESGICK”, the protein production result is listed as “failed”.

On to “MNLDETLLNRIKVIALLNLKLVRKLVIFIMVNCLVLSGIPAALCMSSAPVVYVTGDGSGDFNCDGTDDHVQINQALKFVAENSAYTTVYLKGPFTYVIDDTLLIGSNTILEGDSSAKIKLVNNANWESRKPMIKERSTGISGITIRGFTIDGNREGNTNVVSGKGYYNLIHLSSCQNIKVYDMYLTNNHGDGLKTDKCTNVEFYDNEIYLLGHDGLYASGCSDVEAYGNTITCRTNSGLRLYNTNKASFHDNVITSEGSGGAGIEIQKYNTPAMDDIEVYNNVIYKTALAGIWIFGSGSYSASTANVHVHHNQIYDTGTKTSNSIIGGIVSNGFSGLIENNVIDGAYGAGIVQKTVYSPAPSGSGFLLTVRNNILSNSRSSSGGGSGYGINNELSGTHSFVLQNNCYYGSAGGDSRNVQLSASDIKVDPQFADRSSHDYHLKSIAGRWNGKSWITDSASSPCIDAGYIASDYSKEPQDNGGRINIGTYGNTKYASKSGTTEVVTNQAPVLNSIQDATVEIGESLTFTVSASDAEEDSLSYSASGLPTGATFDSESGIFAWTPAVGQEGTYSVTFVVSDGELTDSATAIINVSKQEDTSKQEDPSTITGEVYDNRLREASPDIVYQSSPFIDVGAMSIGSYRDIMWFDLSVYADYSEVNSATLSLYWYYPAGKARPEDTVIEIYRPADSWNPDYVSWNKKDKRVAWNNAGGDWYDRNGVLQGSTPYATITLEGSDLPDNRYYELDVTDLVNEYISSKYENTGFLIKARTENNNYIAFYSNDCGNENQKPKLTVTEEASVSPIDVQPIDVTVSGAKDNRLREASAENVYQSSAYVDVGALSGVGRYRDMMQFDLSEYADYSEVNSATLFLYWYYPAGKARPEDTVIEIYRPADSWNPDYVSWNKKDKRVAWNNAGGDWYDRNGVLQGSTPYATITLEGSDLPDNRYYELDVTDLVNEYISGKYENTGFLIKARTENNNYIAFYSSEAGGENQRPKLNLQLKQ”, for which the protein production entry is given as “failed”.

For the sequence “MRNEAFDILKDIPKWKLIFWLLLAITLTPITELIIYRLVTSVIESSLTLTELGKEFIRIFGYEKYKGIKESLWMMIVSYLFLFSIFSSYLYIFYRHEKKLYYETCIKKMIEEIRYIANGNFNHKVSIVNHNYLEELAIGVNEIVEQLKVSIDEERQAEQAKSELITNVSHDLRTPLTSIVGYVNLIHHDNYRDEVELRYYIQVIYDKVTRLNALMNDLFEYTRVQNKELSLYSVPIDIVELLGQLTVQFRIQVQEANIECRPSFPSQKLMVLADGDKLVRVFENLIINAIAYGSEGRYIDLTAYESNNMITIDITNYGQPIPSTDLPHIFERFYRVEKSRSTNTGGSGLGLAIAKSIVELHKGTIEVYSDDEKTTFTVKLLPYKC”, the protein production result is “failed”.

As to “MEEVIWEQYTVTLQKDSKRGFGIAVSGGRDNPHFENGETSIVISDVLPGGPADGLLQENDRVVMVNGTPMEDVLHSFAVQQLRKSGKIAAIVVKRPRKVQVAPL”, the protein production result is listed as “not failed”.

Regarding “MDRIQEMTLFAALAGQTSFTGVARHVGLSTATVTRAVASLESRLGILLVVRTTRNMRLTKAGQRFAEDCRRLLADLSEAENAAAGVHALPAGTLTVTAPQMFGALHVTPVLTRFLSEYPAVDIRAILVDRVVSMLDEGVDVAVRIGALRDSSLTAIRVGSVRRMVCASPVYLTQHGTPRHPDDLQQHATISTSAPERPPHWAFRVDDQDYSVNVASRLSLTSFQASINAALQHWGLTQVPHYQIREHLHNGRLVCVLEDFEIAPEPVHVVYSEGRRGSSRVRSFVDFCVSALREDLQFEAAG”, the protein production result is recorded as “failed”.

For the sequence “MDFDLSEEQRLLKESVEGLLKGSYDFDSRKKYAKEKGGWSRAVWGKFAEQGLLGLPFSEEDGGFGAGAVETMIVMEALGHSLVLEPYLPTVVIGGGFLRRAGSAAQKAAHLPGIIDGSKTFAFAQLEKNSRWDLGDVSTTAKKSGDGWVIDGEKFVVLNGEAADTLIVTARTKGGQRDRTGVGVFLVPADAKGITRKGYPTQDGLHAADITFTGVQVGADAAIGDPENALELIEAVVDDARTALCAEAVGLMDESLTTTVEYIKTRKQFGVPIGSFQVLQHRAADMFVATEQARSMAMFATMAAEFDDAKERAGAIAAAKVQIGKSGKFVGQQSIQLHGGIGMTMEAKIGHYFKRLTMIEQTFGDTDHHLARVSAGGGLI”, the protein production entry is on record as “not failed”.

Consider “MTEITGGTLVLVGADHPVAHLDVTAFEASVTHDVMAASVAGTGLGVSTATAAGLSHLVVDAGVAQPVQGARSVRIRGERGDLRHADAMTPVQVEALLRDGQALGAEASHDGLVCLGEVGVGNTTIATALACAMTGLGPDEAVGLGAGSDTAMVERKAEIIKAALTRTHTDPNDPERLLAALGGPEFAVLAGVCLGAAEAGSPVVLDGLATSVAALIATKFSPGLHGWLVASQASREQVHHIVLAELGLEALMELRMRAGLEHHHHHH”, for which the protein production entry is “failed”.

“NIVEWLGDRSLAVLAAIANKFRGSEQETLEPQLDEFVEDKVSTKHVEDDQQDDETLPHLTAYEVEEPKEKAAVHEYPIYMPQAKSETSAVKPTPEPQPQRVAAVNATPTYVEPEPQLKAVSTDNVDPMVERTKQLNVTIEELEAAAQQADDWASEEQTSQSYADTNAVYQEQVQAKHEEVVEHDTPQLESSYAEYAQFAAQQEQQLHVEPTPHEEPVIDTRALDDITDHAEPSEHIEPTISDFDVVDEEETYVAPQPQSRSPEPQPMVQPQSVSQIQPEQAPEPSVAFEPAPQEVEVEEVQDGDQDVAAFQSMVSSAQAKVAATQNPFLMKQEQNLPVPEEPLPTLELLYHPEKRENFIDREALEQVARLVESKLADYKIKADVVGIYPGPVITRFELDLAPGVKVSRISGLSMDLARALSAMAVRVVEVIPGKPYVGLELPNMSRQTVYLSDVISSPQFEQAKSPTTVVLGQDIAGEAVIADIAKMPHVLVAGTTGSGKSVGVNVMILSMLYKASPEDLRFIMIDPKMLELSIYEGIPHLLAEVVTDMKDASNALRWCVGEMERRYKLMSALGVRNVKGFNEKLKMAAEAGHPIHDPFWQEGDSMDTEPPLLEKLPYIVVVVDEFADLMMVVGKKVEELIARLAQKARAAGIHLILATQRPSVDVITGLIKANIPTRVAFTVSTKTDSRTILDQGGAESLLGMGDMLYLPPGSSHTIRVHGAFASDDDVHAVVNNWKARGKPNYIDEIISGDQGPESLLPGEQMESDEEMDPLFDQVVEHVVQSRRGSVSGVQRRFKIGYNRAARIVEQLEAQGIVSAPGHNGNREVLAPAPPKD”: the protein production result is “failed”.

Consider “MSSMVEVEHWNTLRLRIYIGENDKWEGRPLYKVIVEKLREMGIAGATVYRGIYGFGKKSRVHSSDVIRLSTDLPIIVEVVDRGHNIEKVVNVIKPMIKDGMITVEPTIVLWVGTQEEIKKFEEDAIAERQ”, for which the protein production result is reported as “not failed”.

As for “MAAITEFLPKEYGYVVLVLVFYCFLNLWMGAQVGRARKRYNVPYPTLYAIESENKDAKLFNCVQRGHQNSLEMMPMYFILMILGGMKHPCICTGLGLLYNVSRFFYFKGYATGDPMKRLTIGKYGFLGLLGLMICTISFGVTLILA”, the protein production result is given as “failed”.
